Measured values reported in the DeepSol protein solubility set.

Assay: soluble on expression in E. coli; label from the status in PepcDB or PDB records

Sequence	soluble on expression in E. coli
MGSDKIHHHHHHMNTIYNTLRTDKGYKVYEGYLYEITGEECEEALDLVIPKNIVFADTDTCGYTFLLNEDGTVYDDVTFYKFDDKYWLASHKALDSYLDNINFDYTVTDISDEYKMLQIEGRYSGEIAQSFYEYDISTLNFRTLIEMTYKGEKGYLARFGFSGEFGYQFFLPSSIFATFVSDVCEGIAEYGDELDRYLRFEVGQPITDIYQQEEYSLYEIGYSWNLDFTKEEFRGRDSLLEHIRSATVKSVGFSTKEKLASGTPVLFDDQIVGKIFWIADEKDSSENYLGLMIVNQTYAHSGVTFVTEDGQILKTQSSPYCIPESWNKE	not soluble
FNKELDPVQKLFVDKIREYRTKRQTSGGPVDAGPEYQQDLDRELFKLKQMYGKADMNTFPNFTFEDPKFEVVEKPQS	soluble
MSILVKNNIHWVGQRDWEVRDFHGTEYKTLRGSSYNSYLIREEKNVLIDTVDHKFSREFVQNLRSEIDLADIDYIIINHAEEDHAGALTELMAQIPDTPIYCTANAIDSINGHHHHPEWNFKVVKTGDTLDIGNGKQLIFVETPMLHWPDSMMTYMTGDAVLFSNDAFGQHYCDERLFNDEVDQTELFEQCQRYYANILTPFSRLVTPKITEILGFNLPVDMIATSHGVVWRDNPTQIVELYLKWATDYQEDRITIFYDTMSNNTRMMADAIAQGINEVDPNVAVKIFNVARSDKNEILTNVFRSKGVLVGTSTMNNVMMPKIAGLVEEMTGLRFRNKRASAFGSHGWSGGAVDRLSTRLQDAGFEMSLSLKAKWRPDLDALELCRQHGRDIARQWALAPLPETTQQIAPVEETITCTAADLGPKMQCSVCQWIYDPALGEPLQDVAPGTPWNDVPDNFLCPECSLGKDVFDVLATEAK	not soluble
AASDSAQLKSAREDIKELLKTKFCHPIMVRLGWHDAGTYNKNIEEWPQRGGANGSLRFDVELKHGANAGLVNALNLLKPIKDKYSGVTYADLFQLASATAIEEAGGPKIPMKYGRVDVTEPEQCPEEGRLPDAGPPSPAQHLRDVFYRMGLNDKEIVALSGAHTLGRSRPDRSGWGKPETKYTKDGPGAPGGQSWTAQWLKFDNSYFKDIKERRDEDLLVLPTDAALFEDPSFKVYAEKYAADPEAFFKDYAEAHAKLSNLGAKFGPAEGFSLEGSPAGAAPEKFVAAKYSTGKD	soluble
GMFTCKVNEHITIRLLEPKDAERLAELIIQNQQRLGKWLFFAENPSSADTYRETIIPDWRRQYADLNGIEAGLLYDGSLCGMISLHNLDQVNRKAEIGYWIAKEFEGKGIITAACRKLITYAFEELELNRVAICAAVGNEKSRAVPERIGFLEEGKARDGLYVNGMHHDLVYYSLLKREWEGEK	soluble
MHHHHHHSSGVDLGTENLYFQSMKIAVIGQSLFGQEVYCHLRKEGHEVVGVFTVPDKDGKADPLGLEAEKDGVPVFKYSRWRAKGQALPDVVAKYQALGAELNVLPFCSQFIPMEIISAPRHGSIIYHPSLLPRHRGASAINWTLIHGDKKGGFSIFWADDGLDTGDLLLQKECEVLPDDTVSTLYNRFLFPEGIKGMVQAVRLIAEGKAPRLPQPEEGATYEGIQKKETAKINWDQPAEAIHNWIRGNDKVPGAWTEACEQKLTFFNSTLNTSGLVPEGDALPIPGAHRPGVVTKAGLILFGNDDKMLLVKNIQLEDGKMILASNFFK	soluble
MGSDKIHHHHHHMDMLLKKILGTFGVSGREKEISEVIKEELNKYPCEVREDKLGNIIVKLGSGREKIMLSTNMDKKGVITYHIEEDGKVRIDAIGDIKADDIIGKTVVFRSGIEGKIESEKKENNEFRDIYVNVNMGKREAVLKYISEGEAAEFGGNTFADKENVVGPYLSNRAGCYAFLKVIKEIKSIDKEVYFVFSTQGNLNGRGARAAAFEIEPDMCISVNTEKEGEVKLSEGPILVLMEKGLITNYHVKEQIISSAEKAQIKLQRCVSSESSDGSVVHKEVGGIKTGTIALPCKNKNETNETISLNDVDDLVKLLQYIVKK	not soluble
VSTLSKEQVKEIIKGNNFQSVADVSAYLRDIFKDIIQELLEAELEAKLGYAKDDVENKNTDNSRNGYSPKTIKSEFREVEIQVPRDRKGEFKPQIIPKYQRNVSGIEEKVIALYARGMSTRDISEQIEELYGFSLSPEMVSKITDRIAPEIKEWQQRPLEPIYTFVFMDEIH	soluble
MGSDKIHHHHHHMIQYKRCSEVSIDLVYEAFRDGFSDYIIKMEVSKEDFIKRFFGAEGNSLKHSFVALDGNKSVGVILGGIKDYENIKTMRCGTLAVHPNYRGIGVSQKLFELHKDEAIQNGCKQLFLEVIVGNDRAIRFYNKLGYEKVYDLSYYNLKDMTKIIHKECKGIEVKQLEFPAFKVEIQKWLHFHINWQNDMDYIEKTNHTFYGAYVDNDLKGSICINEQGKISFIFIDKEYRNRGIGSKLLQVARDELNLESLLISFPNNSLLEGFLKKTGFEKNSLAQYEMYVLL	not soluble
MSDTPSTSSVFLPTWPTRRTDANLYPNGSTKSDELVLHDYGLEEIPMRYHIEQPEEDYDPQNVKKLDLTHNSFVILRGLTTFNNVSVLDVSFNSLSALPEDIGTLSSLTTLIARNNLLEHLPKGLQLLENLEHLYLSGNRLEYVPPVILTMRKLKTLHLGGNYIDSCPSNISVLTLLRVLYLGGNRLREIPASIGCLDELENLGLCDNILETIPSTLGDLHYLETLSLHNNRLRTLPTDILNLRRLQQLSLRNNPLVHSFVHNMDLAPPSLKELSGRTVRQNYHKVPNLDEILPSDLVAYLGSACQCVNPECQGVYFDARVEHIKFVDFCGKYRVPLMQFLCSPRCSAGVPSVDYDTSSESEEEIEPIMRRVLLG	not soluble
EVKLVESGGGLVKPGGSLKLSCAASGFTFNNYVMVWLRQTPEKRLEWVASISRGGSTYYPDSVKGRFTISRDNARNILYLQMSSLRSEDTAMYYCVRGTTIVAGDVWGAGTTVTVSSAKTTPPSVYPLAPGSAAQTNSMVTLGCLVKGYFPEPVTVTWNSGSLSSGVHTFPAVLQSDLYTLSSSVTVPSSTWPSETVTCNVAHPASSTKVDKKIVPRDC	soluble
MSLCRVLRVKHSSYYDWLSRDISEQQIHRNHCELLVKAAHSETHERYGVERLHAHLSEQGHNISPYMVRSIKEEYSIKCRRHKRFKVTTDSNHNKLVYPNVLDQEFDASRPNQAWASDITYIWTLEGWLYLAGVKDLYTKELVGYAINKRMTADLVCKALNMAIKNKQPSKGLVVHSDRGSQYCSHAYHKIIKQHQFTGSMSGKGNCFDNAPIESFWGILKNELVYHQDYKTRFAAIRDIIGYIELYYNQTRIQKGLGYKSPRQVWFDYYRQAAEGHHHHHH	soluble
MTDSDNPRRVLLKLSGEAFGGGKVGIDTQVIRRIAEEIVPAVQQGVQVAIVVGGGNFFRGAELQQAGIDRSRGDYMGMLGTVMNCLALQDFLEQEGQATRVQTAITMGQVAEPYIPLKAIRHLEKGRVVIFGAGAGMPYFSTDTVSIQRSLEIHCDEVLMGKNGVDGVYTADPRKDENAKRFETLSYNRALVDNLAVMDASALSMARDNKKRIRVFGLEEPGNVTRALVGDEIGTLVSTAESRVAELEHHHHHH	soluble
EVVVIGYGTAKRKDITGSVATVNAEALTVVPVASATEALTGKMAGVQITTTEGSPDAEMKIRVRGGGSITGDNTPLFIVDGFPVESISDIPASDIEDMTVLKDASSTAIYGSRGANGVILVTTKSGK	not soluble
DNSVDLYFLMGLSGSAQGHLSNVQTLGSDLLKALNEISRSGRIGFGSIVNMTFQHILKLTADSSQFQRELRKQLVSGKLATPKGQLDAVVQVAICLGEIGWRNGTRFLVLVTDNDFHLAKDKTLGTRQNTSDGRCHLDDGMYRSRGEPDYQSVVQLASKLAENNIQPIFVVPSRMVKTYEKLTTFIPKLTIGELSDDSSNVAQLIRNAYSKL	soluble
MGSSHHHHHHGGTGENLYFQGGSGMSNSTEQALLQIAQQIERAVDDEIDRIDQMDDDEILAIRQKRLKQLKEIQARRDEWLRKGHGQYLEIAEPKEFFDNVQSSERIVVHFMRRSTPRCEIIERHLRTIAHEHFETRFCYVDVERIPSLPERFNVMMLPTLMLVEKGHTFHSIIGFDEFGGTDDFTTDTVTQVLAHYGMVNEKGMFAADQNDE	soluble
METETYTNSSHLGRKIERIRRLRGMTQTDLGELLGVTKQAISKMEQAEKIDDEKLKQVATALGVTEEGLKKFTEETVLYYTSNFYENCHVSASNIGPITHVENLNHFSMDQAVKLFEELLKIERDKYDKGKEESAK	not soluble
VAEEATGDWGQIFTAFNELSQTLAEYEEERVKHRNELQQERDRFRRLFQSIPEPAVVVEYTGNKTLIHNVNEAFEETFGYEASNAVGGDINDFIVPDGSLEEAESIDQLSSSGKQVTHEVRREAADGKRDFLLRSTPAVDGE	not soluble
GPGSMLGWSGTRFAAALHLRSVCSPRSAAAQGSHARAPRALSSSSSFVALFGSARGFSGTARRFSGTFHYRKVRLTPEDALDPLTKPTNIDKAALHVVSVPIGNLKDFSLRALDVLRGVDYIITTDRPATKTLLDLVNIPNQGRLIHYSRGNRSTSREKLVELLKGGRSMALVTTSGTPCIGDVGGELVQELQKSGIRVTAVPGASALMSALAISGLTTSAYESAKNDKRGADAAADGEAGLSPQTFEDGSFFFGNVLPKSHGARLRILRTIVAPATFPCVFYEVPYRLVMVLQDIASVLPHRFVYVTHELTKLNESLHADTAERLVGFYLRQEAQMLVKKGQLVLVIAGAGPKETAAWLEKEAAKRRRLRRTVSDLMKDAPPAASSHLESAPGTGGTTAAASSSRESSVTTAKEERRQRRKQRAELRRLRQRKKRERLIRAIESEQERLRVILSINRNDASRLM	not soluble
MATLDKFLSIKENDEKTKKKESKKKSSKSNKTSESLVSHDHFELTPEFENQLWKVADKLRKKMEVHQYKYVVLGLIFLRALTCRFYERRKEIEEELSNPNSELYTEDPELRKMILEDEDFYLSEGVLYLPKETRWDYFVENVMSPNIGEIIDTAIEILEEKYPDRLKDVIPKIYAQSPLDNHDYSYLINKFSEISFGKEHRVKDVFGRIYEYFLGKFTEVEGKLGGKFYTPRSLTKLIVDVLDVKGGSIFDPACGSGGFFVSALEKLEREGIDINELSIYGQDSDPMAYRLTKMNLIIRGAEGDIRIDDSYHDDKFMDMTFDYVVANPPFNDSEWDANRIKPDDPRLRIGNKKVPVPPNGNANYMWILHFIYHTAPNGKAGFVMANGALSAGNVEGEIRKAIIENDLVYGIVACPPKLFYNVSLPVSLWFIRKEKPDYMKGKVLFINAKNLYKQISRRQNILTEEHIKKIVDKFRMFESGEDEDKINELGFAKVATIDEIAKNGYVLTPGRYVGVKIEDDGIPFEVKMKEYSEELKKLLDEEEKLRNKVKEILDALGF	soluble
MGHHHHHHSHDRVNGVAKEYVIYGYGEPLLYPDFFKRIEGFDGKVVISTNGMLDSDILDLADKVGVSIDVNDKFRKGLEVEKALEVLRKLGERGIAEVVVTKDNLELLPAFFERIAEHGSGMLATNVVASNPAIYEQGVYFECSRITVEKVLGLDESILVEAIKDCSRGGGEALRRYKHLLKEVYSKGYSINLLAIFGRKGRVETAFKA	soluble
MAKPSDSADICQAPVQTAQAPLPKDSALDDLIGYAMRRAQLKLFQNLIGRLSAHDLRPAQFSALAIIEQTPGLMQADLAKALAIEPPQVVPLLNKLEERALAVRVRCKPDKRSYGIFLSKTGETLLRELKQIAVDSDLDSTSALDNQERNDLLRLLKKVYQS	not soluble
MPSCDPGPAPACLPTKTFRSYLPRCHRTYSCVHCRAHLAKHDELISKSFQGSHGRAYLFNSVVNVGCGPAEQRLLLTGLHSVADIFCESCKTTLGWKYEQAFETSQKYKEGKYIIEMSHMVKDNGWD	soluble
